In patent US20220233554:

Biological target: OCT4 wild-type in cells (human) (UniProt Q01860)
Experiment: cell_activity
Details: for binding signal: transcription activity relative to OBS1+OBS2

UniProt Q01860, sequence (Q01860 whole entry): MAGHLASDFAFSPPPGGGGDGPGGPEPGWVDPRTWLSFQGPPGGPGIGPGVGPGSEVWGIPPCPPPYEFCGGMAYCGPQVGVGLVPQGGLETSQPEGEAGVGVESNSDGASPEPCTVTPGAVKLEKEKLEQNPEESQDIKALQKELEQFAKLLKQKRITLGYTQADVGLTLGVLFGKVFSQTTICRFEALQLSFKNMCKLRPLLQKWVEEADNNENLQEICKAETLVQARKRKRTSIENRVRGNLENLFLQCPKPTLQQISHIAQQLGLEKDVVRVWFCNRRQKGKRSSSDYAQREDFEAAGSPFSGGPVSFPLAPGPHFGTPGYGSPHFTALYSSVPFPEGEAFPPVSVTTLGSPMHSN

MYC -1/-1899 promoter reporter was tested. Which activity (luciferase reporter in HEK293FT vs vector control) did it give?
Its activity is 24.4 fold.

For MYC OBS1 single-site reporter, which binding signal is on record?
Its binding signal is 60%.

For MYC OBS2 single-site reporter, which binding signal is on record?
The binding signal was 40%.
